Test results: paper PMC7088854 (Molecular and Cellular Biochemistry, 2009)

T1: Myc-DC-SIGNR (UniProt Q9H2X3 1-399)
T1 sequence (looked up): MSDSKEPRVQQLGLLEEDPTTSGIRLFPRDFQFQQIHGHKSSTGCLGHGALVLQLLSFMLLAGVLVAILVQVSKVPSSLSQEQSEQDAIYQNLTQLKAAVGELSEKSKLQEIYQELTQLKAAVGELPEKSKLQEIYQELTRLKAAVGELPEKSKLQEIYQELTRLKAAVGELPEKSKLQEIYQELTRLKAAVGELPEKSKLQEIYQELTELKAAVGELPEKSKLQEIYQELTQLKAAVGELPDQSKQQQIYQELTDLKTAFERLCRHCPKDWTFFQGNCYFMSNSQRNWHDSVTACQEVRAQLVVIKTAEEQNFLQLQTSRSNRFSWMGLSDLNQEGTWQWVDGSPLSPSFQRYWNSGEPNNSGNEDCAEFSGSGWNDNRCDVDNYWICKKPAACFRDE


Molecular target: T1, Myc-DC-SIGNR
Assay: co-IP

Binder	co-precipitated amount relative to wild-type LSECtin (onefold)
Flag-LSECtin D3 (deficiency of the CRD/CTLD domain) (domain or fragment, UniProt Q6UXB4 1-162, looked up) MDTTRYSKWGGSSEEVPGGPWGRWVHWSRRPLFLALAVLVTTVLWAVILSILLSKASTERAALLDGHDLLRTNASKQTAALGALKEEVGDCHSCCSGTQAQLQTTRAELGEAQAKLMEQESALRELRERVTQGLAEAGRGREDVRTELFRALEAVRLQNNSC	0.8 fold of wild type
Flag-LSECtin M1 (N73A) (receptor, UniProt Q6UXB4 1-293, looked up) MDTTRYSKWGGSSEEVPGGPWGRWVHWSRRPLFLALAVLVTTVLWAVILSILLSKASTERAALLDGHDLLRTAASKQTAALGALKEEVGDCHSCCSGTQAQLQTTRAELGEAQAKLMEQESALRELRERVTQGLAEAGRGREDVRTELFRALEAVRLQNNSCEPCPTSWLSFEGSCYFFSVPKTTWAAAQDHCADASAHLVIVGGLDEQGFLTRNTRGRGYWLGLRAVRHLGKVQGYQWVDGVSLSFSHWNQGEPNDAWGRENCVMMLHTGLWNDAPCDSEKDGWICEKRHNC	0.8 fold of wild type
Flag-LSECtin M2 (N159A) (receptor, UniProt Q6UXB4 1-293, looked up) MDTTRYSKWGGSSEEVPGGPWGRWVHWSRRPLFLALAVLVTTVLWAVILSILLSKASTERAALLDGHDLLRTNASKQTAALGALKEEVGDCHSCCSGTQAQLQTTRAELGEAQAKLMEQESALRELRERVTQGLAEAGRGREDVRTELFRALEAVRLQANSCEPCPTSWLSFEGSCYFFSVPKTTWAAAQDHCADASAHLVIVGGLDEQGFLTRNTRGRGYWLGLRAVRHLGKVQGYQWVDGVSLSFSHWNQGEPNDAWGRENCVMMLHTGLWNDAPCDSEKDGWICEKRHNC	1.5 fold of wild type
Flag-LSECtin D1 (deletion of the potential endocytic motif) (receptor, UniProt Q6UXB4 1-293, looked up) MDTTRGGSSEEVPGGPWGRWVHWSRRPLFLALAVLVTTVLWAVILSILLSKASTERAALLDGHDLLRTNASKQTAALGALKEEVGDCHSCCSGTQAQLQTTRAELGEAQAKLMEQESALRELRERVTQGLAEAGRGREDVRTELFRALEAVRLQNNSCEPCPTSWLSFEGSCYFFSVPKTTWAAAQDHCADASAHLVIVGGLDEQGFLTRNTRGRGYWLGLRAVRHLGKVQGYQWVDGVSLSFSHWNQGEPNDAWGRENCVMMLHTGLWNDAPCDSEKDGWICEKRHNC	1.2 fold of wild type
